# Measured values as given in PMC5665596.
# How the values were obtained:
# MotS (B. subtilis) = assay: high-speed atomic force microscopy
# [1] = molecular target: MotS_(D30A) (B. subtilis); assay: high-speed atomic force microscopy
stoichiometry N (MotS (B. subtilis)),percent of particles with an unfolded conformation of MotSC [1] [%],Substance
2,–,MotS (natural protein)
–,18,MotS_(D30A) (natural protein)
